Measured values reported in a protein production outcome set (Wang et al. 2014).

Test: label from the status in PepcDB records
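Note: failed if final PepcDB status was selected cloned or expressed and not failed if soluble or beyond.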

| Sequence | protein production |
| --- | --- |
| EIDYTAYPWFAGNMERQQTDNLLKSHASGTYLIRERPAEAERFAISIKFNDEVKHIKVVEKDNWIHITEAKKFDSLLELVEYYQCHSLKESFKQLDTTLKYPYK | failed |
| MHWTIIGGGIQGTAIAQKLLSSGLTTDLLTIIDPHETFCQRFNSYTNRIEMPYLRSPIVHHVHPQPFHLKQFAKQHQYTNAFYGPYQRPELTMFMNHIAHASKQYQLEDCLVQGLVQTLDKQEDKWHIKLEDGQIITTDCVVIAIGSTNIPFMPDILKDKQNVNHIFEKEHDQVVYDKTDHIVGSGITAAHLALKLLNHDNDKKI | failed |
| MPKIWTERIFDDPEIYVLRIDDDRIRYFEAVWEIPEGISYNAYLVKLNGANVLIDGWKGNYAKEFIDALSKIVDPKEITHIIVNHTEPDHSGSLPATLKTIGHDVEIIASNFGKRLLEGFYGIKDVTVVKDGEEREIGGKKFKFVMTPWLHWPDTMVTYLDGILFSCDVGGGYLLPEILDDSNESVVERYLPHVTKYIVTVIGHYKNYILEGAEKLSSLKIKALLPGHGLIWKKDPQRLLNHYVSVAKGDPKKGKVTVIYDSMYGFVENVMKKAIDSLKEKGFTPVVYKFSDEERPAISEILKDIPDSEALIFGVSTYEAEIHPLMRFTLLEIIDKANYEKPVLVFGVHGWAPSAERTAGELLKETKFRILSFTEIKGSNMDERKIEEAISLLKKELE | not failed |
| MLIVDTILKPDRFGGIGLFSATRLPKGSLIWIHNPIVDITVTPEQYEALAPTFQALLDKHAYPRDYKAYDGVIEYNADNARFMNHSSRPNTYQDDRRVFTARDVQPGEELTCNYLFFDPRCDVSWNEEPSMNLDAPTG | failed |
| MTNIFASWGLIKLEIVRALRNRKFLFFSVIYPSALFLLIAGSADSTTKVEGTGLSLPTFFMVSMASFGALTAVLMGNSERIAKERESGWVRQLRLTTLPGRGYVLAKTASAAVISLPSILIVFVVAAAVKNVRLDAWQWLALTGTIWVGSLVFAALGVAIGYLATGDAVRPITMIVYFGLSMLGGLWMPTTTFPDWLQSIAKWLPTHAYAALGQAIELGNAPQAKDIAILAVSFVLFAGGAAWLYRKDTLKA | failed |
| MTRAPSGGTEAPPGRTARRAGWDGRCQAAGHRSRRGGLSTGGDEVSTSDSDDAGLRSFLADPAHLTLDLRTATARCVKALGLRHAVVYLVDLQQRHLVPQTAVAPSVPVDGSPAGWAYRTQSLRVEESGTGGGITAWFPLLDGAERLGVLALCETALTASSLTRGRALASLLAMVITSKRLYEDSFVRRTRTERMTLPAEMLRALLPPRTIGNGNVVSTAVLEPAYEIGGDAFDHALTETTLHVAVLDAMGHDLASGLTTTVSLAACRNARRTGADLPELVRSVDEALSSWLPDKFCTSVIAQLDLVTGVLRWANCGHPAPILIRDQRLVIDAMERDADPPMGMPSLLSPHARRTHEISLEPGDRVLMYTDGVVEARTREAKLLGLERFADYVIRATAGGELAPESLRRLIHSILAMQEGRLRDDATLLMFEWRPPS | failed |
| MIFWRLLQEFASTTIHGTKGICHADELIEKGQIDKAEQAVLTLLERKPNDANILHLAGVVALRKGQNSRAVALISKALEYAPNESLYYFNLGNAYLADGAIDLGIQALQDATRLDPERMEAWMNLGLALVEAKRHPEAVAAFERLLEIDPDHEADVAFASALVGAGIMLKESAMVDRGISVLESKLRDGYERYAAGVILARALEHRNRLSEAIRQHQALLEANPEHIGIRNNLARCLVQLGRVEEARTHYRLCVKSAPDKYHAFSALLAGLNYEPNLTAAMHEAEVRNWEKQLALPHYPVEPEFPNERDPERPLKIGYLSPDLRQHVVGHNFLPVLEHRNREQFSVFCYHIGEKQDDMSRRIAALADHWRHVHGASDDEVAALIREDRVDILVDLSGHTSHTQPLVFARKPAPVQVSWLGYFDTTGLATMDWFITDPYSSPPDQKQYFSERLYRMPHTRLYYHPYPDMPAVGQLPAKRNGYITFGCLNNLAKINTEVLDLWAQILAASPTSRLLIQTVALCDRLNLERFRALCVERGLDPARLELRPATSLEKFAQTYHQIDIALDPFPFCGGFTSFDALWMGVPVITLEQQRLAGRQTLSMLMNLGLPHLIASNKTDYVSIALELSRDSSEIEQLRSELRSRFLQSPLIDHCRFTRELEKAYRFFWSHWCTEKKQSSARKGISAPMDAYPSRRQISAT | failed |
| MPTPTYPKASLIIRERGLPKREVLLSPDRQWTIGRQLDCSIRLTDAYVSRLHAVINAFLFRGQPLYFIRDAHSRNGTFLNGFPLQHSTLLHHEDVIGVGTTLLVFYYPDMFREISLDECPELTKGSTDSLPWRS | failed |
| MQTPSKKYVVDIWSDFVCPWCWIAKRRFENALNRSGMQDDVQVNVRAYRLAANQAPEPMIGALKRKLGNPASADSMMSTVSKYGRADGLDYRFDTMMFGDTADAHILVKAVEDTAVKKRLVEALYEQSTSHGRSLFDRSSLEAIAREVGVSDESIQLAWSSVELRNEMKDDESFAAQLGSGVPLFVFDSSFSVSGAQPDAVFLEALNKMVANSNPEDSSMMGQVCSIDGCKV | not failed |
| MVTNKLITLLPDLATFIVVVNEGSFTAAAKKLGVTPSALSKLITRLENALSVKLFERTTRSLLITESGKKIYQQSVIMVEAAQQAVDISSSEHTVPSGSLTVAAPKAFLTIVLQPLITPFLTKYPKIQLKLRASDGDIDMIAQGIDVVFRLTDKPTEGLVMKEIGKVNLSLCASPTYLEERGIPHLPQELANHDCLFLGETTTDHIWEFVKGTESHVIAVSGRYAVNHSQMRLNGVKDGFGIGIFPDFVIKEALANNEVISVLSDWQIKGNYHGVIAMQYAQNKYIPSRLKVFTEFVKENLMKSKVNDERT | not failed |
| MKTLVDHLSQYANYHRDPRNIATHFVGIPMIVLAVTILLSRPGWEIAGMWLSPALLAAAASVWFYLRLDLRFGLVMGLLLGLCLWVGEALAVQSTTLWLGAGLGAFVVGWIIQFIGHYYEGRKPAFVDDVSGLIIGPLFVVAEAAFMLGLCPTLKRAVEANAGPIAMRQKKASV | failed |
| MFLSRPLVRIASAADRFLHGETEVKIPVKHDDEIGRLARAFNYLSEEIVRLTRKEEWLREVLSSIREAIIVTNASGEIVLANPAASRLFMIEAARKRSIPVTNIEDAAMRELFERVQKRQSGIYNEELTAMTSKGKRTLKVTAVPVMRRGALFDGTVLVINDVTRLRNLERTRRDFVSSVSHELRTPLASIKGYTETLLEGAMNDPENATAFLNIIHQEAEQLTALVNDVLDLSRIESGKIAYSFEPVDVKPQLEKTAALFEPAAARKGVRIELNAPEGLPAVLADRSYFDIVVRNLIDNAIKYVDAESGRVRVSAYATGDSVSIEVADNGIGIPQADLDRIFERFYRVDKARSRELGGTGLGLSIVKHIVLAHKGKVEVRSRINRGTTFTVTLPVAGA | failed |
| MTTIALLGNPNVGKTTLFNALTGSNQHVGNWPGVTVDKKEGFFNSNKIVDLPGIYALDTFSNEEKVSKKFLESGDVDLILNIVDASNLDRNLYLTMQLKDFKKPIVLLLNMNDIAEKKGIKIDPKKLEKAFNLKVIPITASKKEGLDEVKEFLNKGNFEKYLDKNTYSFKDEAHTYKFIEDKLSDCFNRSGNSSTTLTDKLDKVFLNPWLAYPLFIALMYFVFQFTFSWVGQPISDALDGFLGDTFMPYLSDLLSGTAPWFQSLLVDGIVAGVGGIIVLLPIILALFLCIAILEDSGYMARVAFLMDKFMRKIGLSGKAFLPMITGFGCTVPAIMSARTLESEKDRKLTALLAPFMSCNARLPVYVIFAGLFFPDNASMVVASLYILGILVAFILGLVFKNTLFKKDEEPFIIELPEYKVPEVRSVLAQLWDKSKSFLKKAGTIIFAMSVVIWFLQSFNFTGMVEDITHSFLYNIGSFIAPIFAPLGFGDWQASVSLLTGLMAKETIISTMEVIYKGDLTHMLPQFFTALSSYSFMVFVLLYTPCISVVGVMKKEYGGKFTVLSVIFQFLVAWISAFIIYHIGLLIF | failed |
| MANQTVERQSWSNRLAYIMTVAGATVGFGATWRFPYLVGENGGGAYVFLFCIAMIVIGIPMILVENVIGRRMKVNAIDAFSGQANGKKIASGWKILGYMGLLGAFGILSYYMVLGGWVLNYIGSLISGNLDLSSPITVETTTAYYQNSIQNSPITILCYAALFVLINFFILTKGIVDGIERSVKYLMPILFIFLLVMVVRNVTLPGATDGISFYLMPDFSKITPKLFVFVLGQVFFALSLGFGVLITLSSYLDKNENLIKTATITGIMNTFIAVLAGFMIFPSLFSFGVAPNSGPTLVFQSLPIVFSNMWGGTIFAIIFFSLLIVAALTTSLTIYEVIITALQEKTKISRKTAIGITLSSTFLIGNIPSVLGDNIWKDVTIMGKSIFDVFDYISGNILFILTALGSAIFVGYVLKDEAKAELGANKTLTTIWFNYVRFVIPIIIIVIFFNSL | failed |
